Source: the supplement of paper PMC12042874
± gives the uncertainty stated by the source.

Assay: amyloid nucleation score (Sup35N fusion, yeast selection) (log enrichment); library NNK3; higher = more nucleation; inactive = no reads after selection
Method in brief: (§1)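 Yeast lacking psi expressed peptides of 20 random codons fused to Sup35N, received 100 μM copper sulfate for 24 hours, and were then grown for 7 days at 30°C on medium lacking adenine and uracil. Illumina sequencing of input and output plasmid inserts provided the reads. Nucleation scores are DiMSum log enrichments of output over input, centred on the mode of non-aggregating sequences. Any sequence with under 100 input reads was excluded.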

| Substance | amyloid nucleation score |
| --- | --- |
| YKCHMSVYRGFINCNVVLMR | inactive |
| YKCMLYSFG | inactive |
| YKICSLACVKHGREPV | inactive |
| YKIYIFFGTVYMGVDRDQIG | 2.89 ± 0.063 |
| YKNSWLKW | inactive |
| YKPLFVCSRHLMNRELCTGY | inactive |
| YKSPFTGNCLYTVVIKDINL | 1.55 ± 0.085 |
| YKYRSLYFSRYIVLYVVGVL | inactive |
| YKYVTNDLSRVILRPVSARY | inactive |
| YLCIKNRLDKDRSW | inactive |
| YLCWAFDTMVSGDRGPRSC | -0.102 ± 0.81 |
| YLEVLVGSNQCFNMQG | inactive |
| YLFEYSEV | inactive |
| YLFVELYYL | 0.187 ± 0.75 |
| YLIYCL | inactive |
| YLLSL | inactive |
| YLMSYGRWDRWKWWYFYRLW | inactive |
| YLQFIDENS | inactive |
| YLRDNKAWLASSSKL | inactive |
| YLRGVFLRYGG | inactive |
| YLRWLLFYS | inactive |
| YLVFNQY | 1.17 ± 0.086 |
| YLVLKDTRYAYTLLRSMLSA | inactive |
| YLVSDE | inactive |
| YLVTIILI | 1.32 ± 0.16 |

| Substance | amyloid nucleation score |
| --- | --- |
| YMLHGTRRLRRETYGGAGRR | inactive |
| YMRLGRWWSFKAVDGRRLKW | -0.373 ± 1.3 |
| YMSFFIFIPIFLCVNLDRVC | 2.38 ± 0.061 |
| YMSLVRTGKNTQMVVYRLVL | inactive |
| YNFNV | inactive |
| YNFWMRQVVMRVTVCGNDEA | inactive |
| YNKGFALIRIVRQTERRLHT | inactive |
| YNKWCLHLCLRNLSMEEGMD | 1.87 ± 0.11 |
| YNLDDIDSITLYLAVSLCKV | inactive |
| YNLGRNS | inactive |
| YNMCLRDRVLFVIIDVRIFW | 0.035 ± 0.35 |
| YNRFKKLSMA | inactive |
| YNSYK | inactive |
| YNYFFPYTNVYNIFSIYKAV | 3.6 ± 0.078 |
| YPGFSAGCDVWQKFNYGVMT | inactive |
| YPLFMDYMLTCVHM | inactive |
| YPLSPRLLRTTTMHSTQGVG | inactive |
| YPRKFINLNRHWVVVNVFRM | inactive |
| YPSMLPGTGSIAIMDEFVIM | inactive |
| YQFDFTF | inactive |
| YQGKLI | inactive |
| YQICGCSCLSYLPFLTSSIF | inactive |
| YQNIDYMKGYKVISKD | inactive |
| YQRGVRFRSHWMRSGKWDHF | inactive |
| YQSKQRVGSS | inactive |

| Substance | amyloid nucleation score |
| --- | --- |
| YQVSI | inactive |
| YRAECNNFLMPLCCTEFFQI | 2.2 ± 0.087 |
| YRANINRVLVFQLN | 1.44 ± 0.086 |
| YRDRIVNHIVGLLGIGS | 1.16 ± 0.11 |
| YRFLHSEVEVAHFWLWCSSS | inactive |
| YRFVRGWFRMRIERPAAPCT | inactive |
| YRFYLVSVVFKTDEVARKSE | inactive |
| YRGIKFTYKPGLLGQFHRED | inactive |
| YRILINFLSWYLCIYYASCA | inactive |
| YRILTGLSLSFRVCIYFVW | inactive |
| YRKLFDFRRVSTLHFTKSN | inactive |
| YRLQLPYSVNEAVFLLVGSK | inactive |
| YRMTGKLYAVIECSDTVLSG | inactive |
| YRNELCYIQRRYLPYGRWTA | inactive |
| YRNSICHNREKAWHGSNKNR | inactive |
| YRPRGERLRFMYCY | inactive |
| YRVRLCNGSCAQVWCLIRPP | inactive |
| YRYCINVTKYHLLQ | inactive |
| YSDFAWDPRSKNKYGWHPRL | inactive |
| YSFCVSVATEQLKHLSSLWH | inactive |
| YSFRVTYEGPHAN | 0.873 ± 0.14 |
| YSGSNITTHNVFNETGDWSG | inactive |
| YSLCACSYYVNVVNNRVVSV | 1.39 ± 0.073 |
| YSLCLGIAHVRMSTARYYLA | inactive |
| YSMSILFRYHLNGVRYGMTG | inactive |

| Substance | amyloid nucleation score |
| --- | --- |
| YSQLCFF | inactive |
| YSRFDWVNLVIVGHYRTLFS | inactive |
| YSRLEFKRWHVVIDSWRWMD | inactive |
| YSRSTWVRIWFLLVSLLPVG | inactive |
| YSSLLWCKIES | inactive |
| YSSVTTIVVPSLNAYILNCR | inactive |
| YSTMRS | inactive |
| YSTVYIGSQVRVDDTLSMSA | inactive |
| YSYIEGL | inactive |
| YTGSMAGSTYLTGKLSLDDR | inactive |
| YTMLFLLLSWNVFFISWCCF | inactive |
| YTRLRNVDTRAFMDSPDILW | inactive |
| YTVLWDLVFWGTPICYVIDN | inactive |
| YTYQTLLADLNKGFMYSRRW | inactive |
| YVDCYRFAVMQEFPCQYRGD | inactive |
| YVDLAGLMLMADMA | inactive |
| YVDTAHHGSFENLECVEGLC | inactive |
| YVFDHDIGQ | inactive |
| YVFLRVEILEKLQQV | -0.522 ± 0.84 |
| YVGFVARVVRDYNGYQRDTC | inactive |
| YVGPKMFLVWVCDATDVGKW | inactive |
| YVGYIDRWSSCYKVFWV | inactive |
| YVILGIRGKGWVFYQRAP | inactive |
| YVLCFVVELWIGFSDDWISW | inactive |
| YVNRYLLYFSFFTFANMCGS | 2.05 ± 0.055 |

| Substance | amyloid nucleation score |
| --- | --- |
| YVNVYGSQMVYSKSQGHFPD | inactive |
| YVQSLNR | inactive |
| YVRLWVEDWETFSKMGSQIL | inactive |
| YVSDD | inactive |
| YVSHVSISVSSMLCYGGQSW | 1.93 ± 0.096 |
| YVSPKSIVLIPCYTMRKTRY | inactive |
| YVTLYLDTGSCYLSLGCGAG | 0.758 ± 0.22 |
| YVVELLVDSGYVPLCTTGQG | inactive |
| YVWIDYSSVYMD | inactive |
| YVWLGDLMSVRCYYWVTW | inactive |
| YVYDCYAAQHVY | -0.213 ± 0.77 |
| YVYGKNGARGDSIREMGPSE | inactive |
| YWFGWKGGRSVRRVSWSADW | 0.13 ± 0.66 |
| YWMMY | inactive |
| YWNYQMVCFCVNCV | 2.17 ± 0.075 |
| YYCEFGLFELKQTYCRLFWG | inactive |
| YYCSDLSRSMDRSLRSTWPF | inactive |
| YYNAGAGKRRYNRSVRGSLK | inactive |
| YYNSGSLNTYPVNLNLDNFH | inactive |
| YYPSEQTIGWPKLTFVDVVL | inactive |
| YYRFLQWSGGNLWTPRWAPC | inactive |
| YYSKPPCVLTDVGLIWLRPY | inactive |
| YYVLPASG | inactive |
| YYYYDRCMRPVHSGKGVKLW | inactive |

Assay: amyloid nucleation score (Sup35N fusion, yeast selection) (log enrichment); library NNK2; higher = more nucleation; inactive = no reads after selection
Method in brief: as §1

| Substance | amyloid nucleation score |
| --- | --- |
| AAFRSTFDCTTVVLRSPSVS | -0.345 ± 0.33 |
| AAFVAYLAYFLMFSSCFCIY | inactive |
| AAGRDVARAFGSLVQKLGVG | 4.88 ± 0.097 |
| AAIMMN | -0.231 ± 0.62 |
| AALELSRNKFSVRIICVLLW | -0.238 ± 1.1 |
| AALFDLRWTHHKYFPNVKSG | 0.057 ± 1.1 |
| AARVIGWAFVDWFCLSKG | inactive |
| ACCFESSGIQLEVRGGGAWG | 1.58 ± 0.27 |
| ACFSSSLCFVGMERSRSHNF | 1.91 ± 0.13 |
| ACLFWIYARRHRLAWFVFIW | -0.37 ± 0.76 |
| ACLITNRV | -0.288 ± 0.54 |
| ACYIR | 1.02 ± 0.17 |
| ADDCLRTCSNKLKTQAGLW | 1.38 ± 0.35 |
| ADHELVVITDVGFRLGSTGD | -0.226 ± 0.37 |
| ADMIMRYKG | 0.879 ± 0.57 |
| ADQWGTRVWPGWEFVLEVAA | 1.33 ± 0.31 |
| AECNRHLLQAVSLY | -0.256 ± 0.29 |
| AEHYECPLCERIETAGCKLV | 0.509 ± 0.24 |

| Substance | amyloid nucleation score |
| --- | --- |
| AFATRCCSTLIDPSFVIGTG | 0.692 ± 0.41 |
| AFCKGYIARMRSINAGVGAG | -0.144 ± 0.36 |
| AFDLLDD | 0.904 ± 0.33 |
| AFEFIPSKPRW | 0.667 ± 0.66 |
| AFLRLRWNSNPVISGTRNRR | 0.777 ± 0.48 |
| AFMCWSYRS | 6.393 ± 0.043 |
| AFMSYTSSSRYPVCYLSKFH | -0.74 ± 1.1 |
| AFNDIYIMKMHIFGKSIVLL | inactive |
| AFVSYLCCGMYRVANSKSEG | 9.903 ± 0.058 |
| AFYIRLIAREP | inactive |
| AGFYHPSNFGCLGSGLLRTM | inactive |
| AGKFYAGRHNSD | inactive |
| AGKSTHLFLRAVVLLCGNPR | 0.05 ± 0.35 |
| AGLIRCLLRGTCNRNFFSLY | inactive |
| AGMPCKFIRARSSPYFRALC | 0.495 ± 0.62 |
| AGSNDEKNRWVTSL | -0.22 ± 1 |
| AGSQVVVMVIGVSTWAVVDG | 3.01 ± 0.14 |
| AHEYEPNFFRLCYKVRLWNA | -0.244 ± 0.22 |
